In patent US9598687B2:

Target: recombinant human prothrombin (Factor II) (human) (UniProt P00734)

endoproteinase Lysyl endopeptidase (Lys-C) (tool reagent)
Lys-C fragments identified by reverse phase UPLC and mass spectrometry (peptide mapping): 25 fragments
